# According to article PMC10707181, “Neuronal Scaffold Protein ARMS Interacts with Synaptotagmin-4 C2AB through the Ankyrin Repeat Domain with an Unexpected Mode” (International Journal of Molecular Sciences, 2023):
# B1: Syt4 132–425 [human] / ARMS ankyrin repeats 1–11 (R1-11, residues 1–365) [rat] (parent)
# chain 1: MSVLISQSVINYVEEENIPALKALLEKCKDVDERNECGQTPLMLAAEQGNVEIVKELLKNGANCNLEDLDNWTALISASKEGHIHIVEELLKSGASLEHRDMGGWTALMWACYKGRTDVVELLLSHGANPSVTGLYSVYPIIWAAGRGHADIVHLLLQNGAKVNCSDKYGTTPLVWAARKGHLECVKHLLAMGADVDQEGANSMTALIVAVKGGYTQSVKEILKRNPNVNLTDKDGNTALMIASKEGHIEIVQDLLDAGTYVNIPDRSGDTVLIGAVRGGHVEIVRALLQKYADIDIRGQDNKTALYWAVEKGNATMVRDILQCNPDTEICTKDGETPLIKATKMRNIEVVELLLDKGAKVSAVD
# chain 2: ESVSPESLKSSTSLTSEEKQEKLGTLFFSLEYNFERKAFVVNIKEARGLPAMDEQSMTSDPYIKMTILPEKKHKVKTRVLRKTLDPAFDETFTFYGIPYTQIQELALHFTILSFDRFSRDDIIGEVLIPLSGIELSEGKMLMNREIIKRNVRKSSGRGELLISLCYQSTTNTLTVVVLKARHLPKSDVSGLSDPYVKVNLYHAKKRISKKKTHVKKCTPNAVFNELFVFDIPCEGLEDISVEFLVLDSERGSRNEVIGQLVLGAAAEGTGGEHWKEICDYPRRQIAKWHVLCDG
# Variants of: B1
# Assay: ITC
# Conditions: with ARMS ankyrin repeats 1–11 (R1-11, residues 1–365) [rat]
row,Variant,ratio to parent
1,chain 2 ESVSPESLKSSTSLTSEEKQEKLGTLFFSLEYNFERKAFVVNIKEARGLPAMDEASMTSDPYIKMTILPEKKHKVKTRVLRKTLDPAFDETFTFYGIPYTQIQELALHFTILSFDRFSRDDIIGEVLIPLSGIELSEGKMLMNREIIKRNVRKSSGRGELLISLCYQSTTNTLTVVVLKARHLPKSDVSGLSDPYVKVNLYHAKKRISKKKTHVKKCTPNAVFNELFVFDIPCEGLEDISVEFLVLDSERGSRNEVIGQLVLGAAAEGTGGEHWKEICDYPRRQIAKWHVLCDG [chain 2 Q55A],0.3
2,chain 2 ESVSPESLKSSTSLTSEEKQEKLGTLFFSLEYNFERKAFVVNIKEARGLPAMDEQSMTSDPYIKMTILPEKKHKVKTRVLRKTLDPAFDETFTFYGIPYTQIQELALHFTILSFDRFSRDDIIGEVLIPLSGIELSEGKMLMNREIIAANVRKSSGRGELLISLCYQSTTNTLTVVVLKARHLPKSDVSGLSDPYVKVNLYHAKKRISKKKTHVKKCTPNAVFNELFVFDIPCEGLEDISVEFLVLDSERGSRNEVIGQLVLGAAAEGTGGEHWKEICDYPRRQIAKWHVLCDG [chain 2 K148A R149A],0.8
3,chain 2 ESVSPESLKSSTSLTSEEKQEKLGTLFFSLEYNFERKAFVVNIKEARGLPAMDEQSMTSDPYIKMTILPEKKHKVKTRVLRKTLDPAFDETFTFYGIPYTQIQELALHFTILSFDRFSRDDIIGEVLIPLSGIELSEGKMLMNREIIKRNVAASSGRGELLISLCYQSTTNTLTVVVLKARHLPKSDVSGLSDPYVKVNLYHAKKRISKKKTHVKKCTPNAVFNELFVFDIPCEGLEDISVEFLVLDSERGSRNEVIGQLVLGAAAEGTGGEHWKEICDYPRRQIAKWHVLCDG [chain 2 R152A K153A],0.3
4,chain 2 ESVSPESLKSSTSLTSEEKQEKLGTLFFSLEYNFERKAFVVNIKEARGLPAMDEQSMTSDPYIKMTILPEKKHKVKTRVLRKTLDPAFDETFTFYGIPYTQIQELALHFTILSFDRFSRDDIIGEVLIPLSGIELSEGKMLMNREIIKRNVAKSSGRGELLISLCYQSTTNTLTVVVLKARHLPKSDVSGLSDPYVKVNLYHAKKRISKKKTHVKKCTPNAVFNELFVFDIPCEGLEDISVEFLVLDSERGSRNEVIGQLVLGAAAEGTGGEHWKEICDYPRRQIAKWHVLCDG [chain 2 R152A],0.3

# Next, values leading:
row,ratio to parent,Variant
1,0.8,chain 2 ESVSPESLKSSTSLTSEEKQEKLGTLFFSLEYNFERKAFVVNIKEARGLPAMDEQSMTSDPYIKMTILPEKKHKVKTRVLRKTLDPAFDETFTFYGIPYTQIQELALHFTILSFDRFSRDDIIGEVLIPLSGIELSEGKMLMNREIIKRNVRKSSGAGELLISLCYQSTTNTLTVVVLKARHLPKSDVSGLSDPYVKVNLYHAKKRISKKKTHVKKCTPNAVFNELFVFDIPCEGLEDISVEFLVLDSERGSRNEVIGQLVLGAAAEGTGGEHWKEICDYPRRQIAKWHVLCDG [chain 2 R157A]
2,0.3,chain 2 ESVSPESLKSSTSLTSEEKQEKLGTLFFSLEYNFERKAFVVNIKEARGLPAMDEQSMTSDPYIKMTILPEKKHKVKTRVLRKTLDPAFDETFTFYGIPYTQIQELALHFTILSFDRFSRDDIIGEVLIPLSGIELSEGKMLMNREIIKRNVRASSGRGELLISLCYQSTTNTLTVVVLKARHLPKSDVSGLSDPYVKVNLYHAKKRISKKKTHVKKCTPNAVFNELFVFDIPCEGLEDISVEFLVLDSERGSRNEVIGQLVLGAAAEGTGGEHWKEICDYPRRQIAKWHVLCDG [chain 2 K153A]
3,1.6,chain 2 ESVSPESLKSSTSLTSEEKQEKLGTLFFSLEYNFERKAFVVNIKEARGLPAMDEQSMTSDPYIKMTILPEKKHKVKTRVLRKTLDPAFDETFTFYGIPYTQIQELALHFTILSFDRFSRDDIIGEVLIPLSGIELSEGKMLMNREIIAANVAKSSGRGELLISLCYQSTTNTLTVVVLKARHLPKSDVSGLSDPYVKVNLYHAKKRISKKKTHVKKCTPNAVFNELFVFDIPCEGLEDISVEFLVLDSERGSRNEVIGQLVLGAAAEGTGGEHWKEICDYPRRQIAKWHVLCDG [chain 2 K148A R149A R152A]

# Same assay, conditions: with Syt4 132–425 [human]
row,ratio to parent,Variant
1,0.9,chain 1 MSVLISQSVINYVEEENIPALKALLEKCKDVDERNECGQTPLMLAAEQGNVEIVKELLKNGANCNLEDLDNWTALISASKEGHIHIVEELLKSGASLEHRDMGGWTALMWACYKGRTDVVELLLSHGANPSVTGLYSVYPIIWAAGRGHADIVHLLLQNGAKVNCSDKYGTTPLVWAARAGHLECVKHLLAMGADVDQEGANSMTALIVAVKGGYTQSVKEILKRNPNVNLTDKDGNTALMIASKEGHIEIVQDLLDAGTYVNIPDRSGDTVLIGAVRGGHVEIVRALLQKYADIDIRGQDNKTALYWAVEKGNATMVRDILQCNPDTEICTKDGETPLIKATKMRNIEVVELLLDKGAKVSAVD [chain 1 K180A]
